According to patent publication US12338281B2, “Anti-adrenomedullin antibodies and pharmaceutical compositions thereof” (ADRENOMED AG, priority 2011, dated 2025):

How the values were obtained:
Human ADM 1-52 = target: T1, Human ADM 1-52 (Homo sapiens, UniProt P35318); experiment: Human recombinant Adrenomedullin receptor (CRLR+RAMP3) cAMP functional assay (Adrenomedullin Bioassay) in CHO-K1 cells, agonist human ADM; assay type: cell-based; settings: Table 3; 5.63 nM Human ADM 1-52; antibody 0.16-100 μg/ml
T1 construct: host or cells: the receptor chains are made by transfected CHO-K1 cells (FAST-027C); ADM is an added peptide
T1 sequence (P35318 95-146): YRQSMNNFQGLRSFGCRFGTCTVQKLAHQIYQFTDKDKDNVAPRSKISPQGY
Protocol: The effect of selected ADM-antibodies on ADM-bioactivity was tested in an human recombinant Adrenomedullin receptor cAMP functional assay (Adrenomedullin Bioassay).
• Cell line: CHO-K1 • Receptor: Adrenomedullin (CRLR+RAMP3) • Receptor Accession Number Cell line: CRLR: U17473; RAMP3: AJ001016
Dose response curves were performed in parallel with the reference agonists (hADM or mADM).
For antagonist testing, 6 μl of the reference agonist (human (5.63 nM) or mouse (0.67 nM) adrenomedullin) was mixed with 6 μl of the test samples at different antagonist dilutions; or with 6 μl buffer. After incubation for 60 min at room temperature, 12 μl of cells (2,500 cells/well) were added. The plates were incubated for 30 min at room temperature.
The anti-h-ADM antibodies (NT-H, MR-H, CT-H) were tested for antagonist activity in human recombinant adrenomedullin receptor (FAST-027C) cAMP functional assay in the presence of 5.63 nM Human ADM 1-52, at the following final antibody concentrations: 100 μg/ml, 20 μg/ml, 4 μg/ml, 0.8 μg/ml, 0.16 μg/ml.

hADM = target: T2, hADM (Homo sapiens, UniProt P35318); experiment: Stability of human Adrenomedullin in human citrate plasma, quantified by hADM immunoassay; assay type: in vitro ADME; settings: 10 nM hADM, 24° C., NT-H 100 μg/ml
T2 sequence (P35318 95-146 limits assumed): T1 sequence (P35318 95-146)
Protocol: The stabilizing effect of human ADM by human ADM antibodies was tested using a hADM immunoassay.
The technology used was a sandwich coated tube luminescence immunoassay, based on Acridinium ester labelling.
The final concentration was approx. 800.000 relative light units (RLU) of labelled compound (approx. 20 ng labeled antibody) per 200 μL.
After blocking with 5% bovine serum albumine, the tubes were washed with PBS, pH 7.4 and vacuum dried.
Unbound tracer was removed by washing 5 times (each 1 ml) with washing solution (20 mM PBS, pH 7.4, 0.1% Triton X-100).
Human ADM was diluted in human Citrate plasma (final concentration 10 nM) and incubated at 24° C. At selected time points, the degradation of hADM was stopped by freezing at −20° C. […] The remaining hADM was quantified by using the hADM immunoassay described above.

B1: NT-H: mouse monoclonal antibody raised against human ADM 1-21, … (SEQ ID: 15) (antibody, V domains shown)
VH: QVQLQQSGAELMKPGASVKISCKATGYTFSRYWIEWVKQRPGHGLEWIGEILPGSGSTNYNEKFKGKATITADTSSNTAYMQLSSLTSEDSAVYYCTEGYEYDGFDYWGQGTTLTVSS
VL: DVLLSQTPLSLPVSLGDQATISCRSSQSIVYSNGNTYLEWYLQKPGQSPKLLIYRVSNRFSGVPDRFSGSGSGTDFTLKISRVEAEDLGVYYCFQGSHIPYTFGGGTKLEIK
In the case of B1, the “Maximal inhibition of ADM bioactivity (ADM-Bioassay) (%)” value (Human ADM 1-52) is reported as 38% and the “half life of hADM in the presence of NT-H” value (hADM) is reported as 18.3 h.
